Results reported in patent publication US11739318B1, “Modified biosensors and biocatalysts and methods of use” (priority 2017, dated 2023).
Numbering of substitutions follows the chain as printed. In names and notes the source's numbering stands.

B1: PcaR-G5: PcaR variant for a low sensitivity BKA sensor, SEQ ID NO: 26 (protein)
chain: MSDETLGNDSGNAEVARPASAAMAPPIVASPAKRIQAFTGDPDFMTSLARGLAVIQAFQERKRHLTIAQISHRTEIPRAAVRRCLHTLIKLGYATTDGRTYSLLPKVLTLGHAYLSSTPLAISAQPYLDRISDQLHEAANMATLEGDDILYIARSATVERLISVDLSVGGRMPAYCTSMGRILLAAMDDTSLREYLERADLKARTSRTLNDPESLFACIQQVRAQGWCVVDQELEQGVRAIAVPVYDASGQVLAALSVSTHVGRVTRSELEQRFLPILLAASRDLCHQLFG
modifications: PcaR-G5
B2: PcaR-F6: PcaR variant for a low sensitivity BKA sensor, SEQ ID NO: 27 (protein)
chain: B1 chain with M172L, V238M, A240T
modifications: PcaR-F6
B3: PcaR-H6: PcaR variant for a low sensitivity BKA sensor, SEQ ID NO: 28 (protein)
chain: B1 chain with A240S
modifications: PcaR-H6
B4: H115W/V346A: PON1 version that combines the two mutations H115W/V346A (protein, UniProt P27169 2-355, looked up, variant H115W V346A)
Serum …: AKLIALTLLGMGLALFRNHQSSYQTRLNALREVQPVELPNCNLVKGIETGSEDLEILPNGLAFISSGLKYPGIKSFNPNSPGKILLMDLNEEDPTVLELGITGSKFDVSSFNPWGISTFTDEDNAMYLLVVNHPDAKSTVELFKFQEEEKSLLHLKTIRHKLLPNLNDIVAVGPEHFYGTNDHYFLDPYLQSWEMYLGLAWSYVVYYSPSEVRVVAEGFDFANGINISPDGKYVYIAELLAHKIHVYEKHANWTLTPLKSLDFNTLVDNISVDPETGDLWVGCHPNGMKIFFYDSENPPASEVLRIQNILTEEPKVTQVYAENGTVLQGSTVASVYKGKLLIGTAFHKALYCEL
B5: UbiC_C21: E. coli UbiC variant with mutations M34V/I78V (protein, UniProt P26602 2-165, looked up, variant M34V I78V)
Chorismate pyruvate-lyase: SHPALTQLRALRYCKEIPALDPQLLDWLLLEDSVTKRFEQQGKTVSVTMIREGFVEQNEIPEELPLLPKESRYWLREVLLCADGEPWLAGRTVVPVSTLSGPELALQKLGKTPLGRYLFTSSTLTRDFIEIGRDAGLWGRRSRLRLSGKPLLLTELFLPASPLY
B6: UbiC_C11: E. coli UbiC variant with mutations E31Q/I78V/L80V (protein, UniProt P26602 2-165, looked up, variant E31Q I78V L80V)
Chorismate pyruvate-lyase: B5 Chorismate pyruvate-lyase with E31Q, V34M, L80V
B7: UbiC_C22: E. coli UbiC variant with mutations E31Q/M34V (protein, UniProt P26602 2-165, looked up, variant E31Q M34V)
Chorismate pyruvate-lyase: B5 Chorismate pyruvate-lyase with E31Q, V78I

Columns and labels:
BKA = BKA sensing with PcaR variants in high BKA producing strain NN7; format: cell-based, P. putida; conditions: strain NN7, LB background BKA production
From the text: Rosetta homology modeling, using a known structure of a transcription factor with a homologous sequence (PDB code 2G7U) was used to get a 3D estimate of the PcaR inducer binding domain. Based on the predicted structure, several amino acids in the pocket were identified to be suitable for mutagenesis. […] Positions N140, L161, L166, L172, M179, L234, L238, S240, N257 and S259 were mutated for diversification to achieve N/S/T/I at positions 140 and 257, L/M/V at positions 161, 166, 172, 179, 234 and 238, S/T/A at position 240 and 259. This produced a library of diversity>100,000. The library was transformed in high BKA producing strain where native pcaR gene was deleted (strain NN7) and screened for increase fluorescence response with increasing dose of precursors while in the LB mediated BKA production background.

pNP sensor = assay: Raw whole cell fluorescence with pNP sensor and sfGFP-PON1 under positive feedback regulation, flow cytometer; format: cell-based, E. coli; conditions: mean of duplicate cultures ± SD
From the text: FIGS. 16A-16D show ‘Catalyze’ and ‘sense’ system for hydrolysis reactions. […] UI: background fluorescence from cells without any pNP source to induce the TF; […]; pNP: TF induced by exogenously supplied pNP as a control/reference. […] Relative activity levels are distinguishable by eye.
The technique described here (referred to in this example as “smart microbial cells” or SMC; e.g., FIGS. 1A and 1B) allows for catalysis and sensing in the same microbial cell. For a practical library application, we simplified and improved the signal to noise ratio of the biosensor. This was achieved by gene fusing the PON1 to the GFP so that the TF is also regulating the catalytic enzyme expression as well (scheme shown in FIG. 1B). This fusion is expected to have three distinct effects. First, it provides positive feedback, such that more the activity, the more PON1 is expressed, and in turn further ‘feeds’ the activity. […] Second, feedback will amplify the already present correlation between activity and GFP expression. Third, for suitably chosen GFP, the fluorescence signal conveniently reports the amount of fused PON1 present, allowing normalization for specific activity.
. Based on the catalytic efficiency and the cytoplasmic concentration of the hydrolase, PXN hydrolysis results in a correlated pNP production inside the microbial cell that ultimately determines activation of the pNP sensor and accumulation of sfGFP in the cells. […] When pNP was used as an inducer, such that the expression of sfGFP-PON1 expression is independent of the catalytic efficiency of PON1, modest differences in cell fluorescence were still captured across the PON1 variants indicating V346A mutation could be detrimental to PON1 expression and stability (FIG. 16C, Table 6).

P. putida CJ200 = assay: Shake flask muconate production; format: cell-based; conditions: plasmid expressed, over CJ200 with no heterologous UbiC expression
Procedure: Shake flask experiments for muconate production: P. putida CJ200 transformed with pPobR_ubiC plasmids or with genomically integrated ubiC-C22 under PobR regulation (NP015) were grown in 125 mL baffled shake flasks containing 25 mL of 1×M9 salts (6.78 g/L Na2HPO4, 3 g/L KH2PO4, 0.5 g/L NaCl, 1 g/L NH4Cl), 30-50 mM glucose, 2 mM MgSO4, 100 μM CaCl2), 18 μM FeSO4, and 50 μg/mL kanamycin. Seed cultures were grown from glycerol stocks in LB media supplemented with 50 μg/mL kanamycin, for 16 hours, pelleted and washed with M9 growth medium and subcultured into flasks to a final OD600 of 0.05. Cultures were incubated at 30° C. and 225 rpm for up to 2 days. Samples were taken at regular intervals to quantify cell density, glucose consumption, and muconate concentration.
Quantification of glucose and muconate concentrations using High Performance Liquid Chromatography (HPLC): To measure muconate concentration, culture samples collected at various time points were centrifuged either at 3,500 rpm for 10 min or 16,000 rpm for 1 min. […] The samples were analyzed for 10 min on a Fast Acid column (Phenomenex Rezex RFQ-Fast Acid H+(8%)) using 0.01 N H2SO4 at a flow rate of 0.8 mL/min as a mobile phase. […] Alternatively, the samples were analyzed for 40 min on a SUPELCOGEL H Column (SUPELCO) with 0.1% H2SO4 at 0.5 mL/min. […]

[1] = UbiC enzyme kinetic parameters (pyruvate release coupled to lactate dehydrogenase, NADH oxidation at 340 nm); format: biochemical; conditions: sfGFP fused UbiC variants with C-terminal 6xHis tag, 30° C., pH 7.5; for Km: chorismate
Procedure: Enzyme expression and purification: 5 mL cultures were grown from the glycerol stocks of P. putida CJ182 containing plasmids encoding 6×His-tag UbiC variants. At an OD600 of ˜0.6, the cultures were induced with 1 mM 4HB and further grown for 16 h at 30° C. and 225 rpm shaking. The cultures were centrifuged at 3500×g for 10 min and the cell pellets were lysed with 500 μL BugBuster (Novagen) under slow shaking for 30 min. The cell lysates were centrifuged at 15,000×g for 15 min at 4° C. and the sfGFP-UbiC fusion proteins were purified by Affinity Chromatography using Talon beads (Clontech). For purification, the clarified supernatant for each UbiC variant was mixed with 200 μL Talon beads in an equilibration buffer (50 mM Tris-HCl, 300 mM NaCl, pH 7.5) for 30 min. The mixture was centrifuged at 2000×g, the supernatant was discarded and the pellet consisting of Talon beads with bound protein was washed two times with equilibration buffer containing 50 mM imidazole. Finally, the beads were mixed with elution buffer (50 mM Tris-HCl, 300 mM NaCl, 300 mM Imidazole, pH 7.5) and filtered through a spin column with 0.2 µm filter. The enzyme concentration and purity of the protein in the eluate were determined by absorbance at 280 nm using a Nanodrop (Thermo Scientific) and SDS polyacrylamide gel electrophoresis, respectively.
Determining enzyme kinetic parameters: The production of 4HB from chorismate catalyzed by UbiC is accompanied with release of a pyruvate molecule. […] The reactions were conducted in 96-well plate at 30° C. in the Synergy H4 Hybrid Microplate Reader (Biotek). The kinetic parameters and product inhibition constants were determined by measuring the initial reaction rates with respect to varying substrate and product concentrations and calculated using GraphPad Prism software.

Molecule | fluorescence response with BKA precursors, catechol and PCA (BKA) | kcat [1] [s⁻¹] | Km [1] [µM] | other results
B1 | showed dose dependent response |  |  | 
B2 | showed dose dependent response |  |  | 
B3 | showed dose dependent response |  |  | 
B4 |  |  |  | Raw whole cell fluorescence intensity, PXN (1.6 mM) (pNP sensor; exogenous paraoxon 1.6 mM): 2410 ± 669; Raw whole cell fluorescence intensity, pNP (200 μM) (pNP sensor; induced with exogenous pNP 200 μM): 11484 ± 2032; Raw whole cell fluorescence intensity, UI (pNP sensor; uninduced, no pNP source): 248 ± 36
B5 |  | 0.67 ± 0.06 | 90.2 ± 7.8 | muconate yield increase (P. putida CJ200): ~130%
B6 |  | 0.51 ± 0.04 | 54.7 ± 3.4 | 
B7 |  | 1.04 ± 0.09 | 148 ± 9.4 | muconate yield increase (P. putida CJ200): ~130%
